Laboratory results as given in paper PMC10469194 (Scientific Reports, 2023).

B1: REGN10987-based FabH3 (GS-G4 linker) (other)
VH: QVQLVESGGGVVQPGRSLRLSCAASGFTFSNYAMYWVRQAPGKGLEWVAVISYDGSNKYYADSVKGRFTISRDNSKNTLYLQMNSLRTEDTAVYYCASGSDYGDYLLVYWGQGTLVTVSS
VL: QSALTQPASVSGSPGQSITISCTGTSSDVGGYNYVSWYQQHPGKAPKLMIYDVSKRPSGVSNRFSGSKSGNTASLTISGLQSEDEADYYCNSLTSISTWVFGGGTKLTVL
notes: VH domain of REGN10987, as the VH of the heavy chain of m1; flexible glycine-serine linker, printed only as the formula 'GS-G4' (G: glycine, S: serine); spelled out from that formula; IgG1 heavy chain constant 3 (CH3) domain; VL domain of REGN10987, as the VL of the light chain of m1; E356 is 239 and D399 is 282 in P01857; also called REGN10987 FabH3; FabH3 format; copies: 1 + 1
B2: REGN10987 wild type Fab (Fab, V domains shown)
VH: B1 VH
VL: B1 VL
notes: Fab heavy chain (VH-CH1) of REGN10987; Fab light chain (VL-CL, lambda) of REGN10987; Heavy and light chain are covalently linked (one mass of 47,892 Da by ESI-MS); also called REGN10987 Fab; REGN10987-Fab

Molecular target: T1, mutated-truncated DsbC (mtDsbC) tagged SARS-CoV-2 Receptor Binding Domain (RBD) (Severe acute respiratory syndrome …, UniProt P0DTC2, biotin (biotinylated, site not stated))
T1 construct: also called mtDsbC-SARS-CoV-2 wild type; SARS-CoV-2 RBD
Experiment: BLI; biotinylated antigen (5 µg/mL) immobilised on Streptavidin biosensors; five concentrations of Fab or FabH3 (3-243 nM); Octet RED384, 30 °C, 1000 rpm, 1X PBS Kinetics Buffer; global fit, 1:1 interaction model
Settings: both partners purified

Row | Binder | Kd
1 | B1 | 20 ± 2.6 nM
2 | B2 | 43 ± 4.4 nM
